US20240392024A1 (SHANGHAI CELGEN BIO PHARMACEUTICAL, published 2024)
Numbering of substitutions follows the chain as printed. Where “and” joins values, the source holds several entries; their conditions need not be identical. Identical values can stand only once.

T1: recombinant human TNFR2 antigen (Kangdai, batch number A100114U) (human, UniProt P20333 23-257)
T1 construct: also called hTNFR2; TNFR2-FC (Shanghai Saijin Biopharmaceutical Co., Ltd., Qiangke, catalog number A100114U); not shown: Fc part of the bought TNFR2-FC
T1 sequence (looked up): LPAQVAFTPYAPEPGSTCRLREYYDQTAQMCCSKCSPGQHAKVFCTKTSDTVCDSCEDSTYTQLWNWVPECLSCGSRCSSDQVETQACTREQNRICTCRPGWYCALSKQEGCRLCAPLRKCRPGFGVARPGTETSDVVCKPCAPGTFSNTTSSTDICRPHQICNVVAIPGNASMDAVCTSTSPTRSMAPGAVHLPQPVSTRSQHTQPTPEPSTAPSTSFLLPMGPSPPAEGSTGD

T2: recombinant mouse TNFR2 (mTNFR2) (Sino Biological, 50128-M08H) (mouse, UniProt P25119 23-258)
T2 sequence (looked up): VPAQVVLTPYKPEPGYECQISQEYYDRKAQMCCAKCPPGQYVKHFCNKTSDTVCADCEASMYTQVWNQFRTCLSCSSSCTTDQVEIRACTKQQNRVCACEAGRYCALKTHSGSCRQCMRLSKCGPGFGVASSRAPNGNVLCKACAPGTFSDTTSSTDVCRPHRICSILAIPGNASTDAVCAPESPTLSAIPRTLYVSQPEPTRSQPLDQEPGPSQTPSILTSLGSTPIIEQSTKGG

T3: human TNFR2 on the cell membrane (human, UniProt P20333 23-461)
T3 construct: whole, on cells; One molecule for all cell formats; also called TNFR2-CHO cells; CHO-TNFR2
T3 sequence (looked up): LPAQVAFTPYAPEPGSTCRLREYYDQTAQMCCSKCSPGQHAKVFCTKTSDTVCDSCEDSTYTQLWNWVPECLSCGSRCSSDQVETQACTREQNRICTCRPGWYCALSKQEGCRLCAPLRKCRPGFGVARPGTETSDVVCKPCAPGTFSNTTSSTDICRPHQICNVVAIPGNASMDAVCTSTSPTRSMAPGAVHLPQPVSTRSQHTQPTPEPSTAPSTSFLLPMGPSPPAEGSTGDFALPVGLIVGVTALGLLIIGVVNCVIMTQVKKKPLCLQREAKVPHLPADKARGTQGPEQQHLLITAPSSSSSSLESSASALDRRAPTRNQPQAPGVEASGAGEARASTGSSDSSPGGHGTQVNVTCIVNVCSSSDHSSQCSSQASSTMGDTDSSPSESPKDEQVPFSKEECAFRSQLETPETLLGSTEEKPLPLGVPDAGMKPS

T4: TNFR2-His (Sino Biological, 10417-H08H, NP_001057.1 Met1-Asp257, with multi-histidine tag expressed on … (human, UniProt P20333 23-257))
T4 construct: range 1-257; Bought protein; also called recombinant human TNFR2 protein; TNFR2-His antigen; not shown: C-terminal multi-histidine tag
T4 sequence (looked up): T1 sequence (looked up)

T5: recombinant cynomolgus monkey TNFR2 (Cyno. TNFR2) (Sino Biological, 90102-C021) (cynomolgus monkey, UniProt A0A2K5VET2 132-366)
T5 sequence: T1 sequence (looked up) with S16G, S36P, P117Q, N164H, E210A, S216G, M223V

B1: anti-human TNFR2 mouse monoclonal antibody 29A1 (antibody, V domains shown)
VH: QVQLQQSGAEVVRPGASVTLSCKASGYTFSDYEMHWVKQTPVHGLEWIGAIDPETGDTAYNQKFKDKARVTADKSSSTAYMELRSLTSEDSAVYYCTRDIHYYGSSLSYFDYWGQGTTLTVSS
VL: DIVMTQSQKFMSTSVGDRVSVTCKASQNVGTNVAWYQQKPGQSPKVMIYSASYRYSGAPDRFTGSGSGTDFTLTVNNVQSEDLAEYFCQQYKTYPYTFGGGTKLEIE
B2: anti-human TNFR2 mouse monoclonal antibody 13F5 (antibody, V domains shown)
VH: QVQLQQSGAELVRPGTSVKMSCKASGYTFTNYWIGWTKQRPGHGLEWIGDIFPGGDFTNYNEKFKGKATLTADKSSSTAYLQFSSLTSEDSAIYYCSRRRFTTIVAPGFDYWGQGTTLTVSS
VL: QLVLTQSSSASFSLGASAKLTCTLSSQHSMYTIEWYQQQPLKPPKFVMELKKDGSHSTGDGIPDRFSGSSSGADRYLNISNIQPEDEAIYICGVGDTIKEQFVYVFGGGTEVTVL
B3: anti-human TNFR2 mouse monoclonal antibody 27F6 (antibody, V domains shown)
VH: EVQLQQSGTVLARPGASVKMSCKTSGYTFTSYWMHWVKQRPGQGLEWIGTIYPGNSDTSYNQKFKGKAKLTAVTSASTAYMELNSLTNEDSAVFYCTRENLLLRSYFFDYWGQGTTLTVSS
VL: DIVMTQSPASLAVSLGQRATISCKASQSVDYDGDSYLNWYQQKPGQPPKLLIYAASNLPSGIPARFSGSGSGTDFTLNIHPVEEEDAATYYCQQSNEDPRTFGGGTKLEIK
B4: anti-human TNFR2 mouse monoclonal antibody 18A2 (antibody, V domains shown)
VH: DVQLQESGPGLVKPSQSLSLTCSVTGYSITSGYYWNWIRQFPGNKLEWMGYISYDGSNNYNPSLKKRISITRDTSKNQFFLKLNSVTTEDTATYYCTGGSGTSWGQGTLVTVSA
VL: DIVMTQSHKFMSTSVGDRVSITCKASQDVTTGIAWYQQKPGQSPKLLIYSASNRFTGVPDRFTGSGSGTDFTFTISSVQAEDLAVYFCQQHYSTPFTFGSGTKLEIQ
notes: also called 18A12
B5: 11G2huVH2 + huVL2(P07267) (antibody, V domains shown)
VH: QVQLVQSGAEVKKPGASVKVSCKASGYTFITYDINWVRQAPGQGLEWIGWIYPRDGNTQFNENFKGRVTMTTDTSTSTAYMELRSLRSDDTAVYYCARGDRDYGYFDVWGQGTTVTVSS
VL: DIQMTQSPSSLSASVGDRVTITCRASQDISNYLNWYQQKPGKAPKLLIYFKSKLHSGVPSRFSGSGSGTDFTLTISSLQPEDFATYYCQQGNTLPLTFGGGTKLEIK
notes: Humanized 11G2
B6: 11G2huVH5 + huVL1(P07266) (antibody, V domains shown)
VH: QVQLVQSGAEVKKPGASVKVSCKASGYTFITYDINWVRQATGQGLEWIGWIYPRDGNTQYAQKFQGRVTMTRNTSISTAYMELSSLRSEDTAVYYCARGDRDYGYFDVWGQGTTVTVSS
VL: B5 VL with Q6P, P8T, P44V, I106L
notes: Humanized 11G2
B7: 11G2huVH3 + huVL1(P07264) (antibody, V domains shown)
VH: B6 VH with Y60F, A61N, Q62E, K63N
VL: B5 VL with Q6P, P8T, P44V, I106L
notes: Humanized 11G2
B8: 11G2huVH3 + huVL2(P07268) (antibody, V domains shown)
VH: B6 VH with Y60F, A61N, Q62E, K63N
VL: B5 VL
notes: Humanized 11G2
B9: 11G2huVH1 + huVL1(P07262) (antibody, V domains shown)
VH: B5 VH with V20L, R67K, V68A, T72V, T74E, L83V
VL: B5 VL with Q6P, P8T, P44V, I106L
notes: Humanized 11G2
B10: 11G2huVH4 + huVL1(P07265) (antibody, V domains shown)
VH: B5 VH with F60Y, N61A, E62Q, N63K, K65Q
VL: B5 VL with Q6P, P8T, P44V, I106L
notes: Humanized 11G2
B11: 11G2huVH2 + huVL1(P07263) (antibody, V domains shown)
VH: B5 VH
VL: B5 VL with Q6P, P8T, P44V, I106L
notes: Humanized 11G2

Target: T1, recombinant human TNFR2 antigen …
Test: ELISA, plate coated with recombinant human TNFR2 antigen
Experimental: (§1) After TMB development, the detection was performed using microplate reader: dual wavelength 450 nm/655 nm detection, and results were calculated by OD₄₅₀-OD₆₅₅.

Row | EC50 | Binder
1 | 0.171 nM | B1
2 | 0.428 nM | B2
3 | 0.245 nM | B3
4 | 0.312 nM | B4

Target: T2, recombinant mouse TNFR2 (mTNFR2) (Sino …)
Test: ELISA, coated mouse TNFR2
Experimental: as §1
(§2) Using the same method as above, the TNFR2 antigens of cynomolgus monkey and mouse (Sino Biological, 90102-C021 and 50128-M08H) were coated separately. The anti-human TNFR2 mouse monoclonal antibodies to be tested were gradient diluted, then added with the anti-mouse Fab segment secondary antibody (Jackson Immuno Research, 515-035-072), and TMB development was performed. ELISA was used to detect the binding of 8 strains of mouse monoclonal antibodies to recombinant mouse TNFR2 (mTNFR2) and cynomolgus monkey TNFR2 (Cyno. TNFR2).

Row | binding result | Binder
5 | no binding | B1
6 | no binding | B2
7 | no binding | B3

Target: T3, human TNFR2 on the cell membrane
Test: flow cytometry on TNFR2-CHO cells
Experimental: (§3) Purified anti-human TNFR2 mouse monoclonal antibodies were co-incubated with TNFR2 overexpressing CHO cell lines (obtained routinely as follows: PCDNA3.4-TNFR2 was transfected into CHO cells, and stable high expression TNFR2 cell lines were obtained through drug screening and monoclonal sorting), and then stained. The antibody binding intensity was analyzed by flow cytometry. The specific steps are as follows: TNFR2-CHO cells were counted, centrifuged, resuspended, then added to a 96-deep well plate, and the supernatant was discarded. The anti-TNFR2 antibodies to be tested were gradient diluted, added to the 96-deep well plate. […] The samples were detected using Beckman CytoFLEX.

Row | EC50 | Binder
8 | 1.19 nM | B1
9 | 1.25 nM | B3

Target: T4, TNFR2-His (Sino Biological, 10417-H08H, …)
Test: BLI, antibody captured on AHC probe, TNFR2-His in solution
Outline: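 Kon, koff and Kd were derived from kinetic association measurements by bio-layer interferometry on an Octet in Basic Kinetics mode. Antibody-capture sensors held antibodies at 50 nM in Q buffer (10 mM PBS pH 7.4, 0.02% Tween 20, 0.2% BSA). These sensors were then placed in recombinant human TNFR2, diluted 2-fold in Q buffer from a top concentration of 100 nM.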

Row | Kd | koff | kon | Binder
10 | 7.3 nM | 0.00205 s⁻¹ | 280000 M⁻¹ s⁻¹ | B5
11 | 7.29 nM | 0.00163 s⁻¹ | 223000 M⁻¹ s⁻¹ | B6
12 | 5.1 nM | 0.00161 s⁻¹ | 316000 M⁻¹ s⁻¹ | B7
13 | 7.28 nM | 0.0022 s⁻¹ | 302000 M⁻¹ s⁻¹ | B8
14 | 4.79 nM | 0.00115 s⁻¹ | 239000 M⁻¹ s⁻¹ | B9
15 | 9.76 nM | 0.00255 s⁻¹ | 261000 M⁻¹ s⁻¹ | B10
16 | 5.96 nM | 0.00171 s⁻¹ | 287000 M⁻¹ s⁻¹ | B11

Target: T1, recombinant human TNFR2 antigen …
Test: ELISA, coated recombinant human TNFR2
Experimental: as §1

Row | EC50 | Binder
17 | 0.0255 µg/mL | B1
18 | 0.0638 µg/mL | B2
19 | 0.0366 µg/mL | B3
20 | 0.0465 µg/mL | B4

Target: T4, TNFR2-His (Sino Biological, 10417-H08H, …)
Test: ELISA, plate coated with TNFR2-His
Outline: (§4)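 ELISA on plates coated with recombinant human TNFR2 carrying a C-terminal His tag, then blocked. Serially diluted antibodies were incubated, followed by an enzyme-labelled anti-IgG secondary antibody. Plates were developed with TMB and read on a microplate reader. EC50 is reported from the dilution series.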

Row | EC50 | Binder
21 | 0.0421 µg/mL | B5
22 | 0.014 µg/mL | B6
23 | 0.049 µg/mL | B7
24 | 0.0404 µg/mL | B8
25 | 0.0141 µg/mL | B9
26 | 0.0427 µg/mL | B10
27 | 0.0502 µg/mL | B11

Target: T3, human TNFR2 on the cell membrane
Test: flow cytometry on CHO-TNFR2 cells
Outline: (§5)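 Flow cytometry on CHO cells stably overexpressing human TNFR2, made by pcDNA3.4-TNFR2 transfection, drug selection and single-clone sorting. Cells in 96-deep-well plates were incubated with serially diluted antibodies, washed and stained with a fluorescent anti-IgG secondary antibody. Samples were read on a Beckman CytoFLEX. EC50 is reported from the dilution series.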

Row | EC50 | Binder
28 | 0.0214 µg/mL | B5
29 | 0.0014 µg/mL | B6
30 | 0.0275 µg/mL | B7
31 | 0.0299 µg/mL | B8
32 | 0.0009 µg/mL | B9
33 | 0.0256 µg/mL | B10
34 | 0.0229 µg/mL | B11

Target: T5, recombinant cynomolgus monkey TNFR2 …
Test: ELISA, plate coated with recombinant cynomolgus monkey TNFR2
Experimental: as §1, §2

Row | EC50 | Binder
35 | 0.377 nM | B1
36 | > 1 µg/mL and > 6.7 nM | B2
37 | 0.506 nM | B3
38 | > 1 µg/mL and > 6.7 nM | B4

Target: T3, human TNFR2 on the cell membrane
Test: flow cytometry, TNFR2-CHO cells
Experimental: as §3

Row | EC50 | Binder
39 | 0.178 µg/mL | B1
40 | 0.187 µg/mL | B3

Target: T3, human TNFR2 on the cell membrane
Test: flow cytometry, CHO-TNFR2 cells; CHO-TNFR2 cells
Outline: as §5

Row | EC50 | Binder
41 | 0.144 nM | B5
42 | 0.01 nM | B6
43 | 0.184 nM | B7
44 | 0.2 nM | B8
45 | 0.006 nM | B9
46 | 0.171 nM | B10
47 | 0.153 nM | B11

Target: T4, TNFR2-His (Sino Biological, 10417-H08H, …)
Test: ELISA, coated TNFR2-His
Outline: as §4

Row | EC50 | Binder
48 | 0.282 nM | B5
49 | 0.094 nM | B6
50 | 0.328 nM | B7
51 | 0.271 nM | B8
52 | 0.095 nM | B9
53 | 0.286 nM | B10
54 | 0.336 nM | B11

Target: T5, recombinant cynomolgus monkey TNFR2 …
Test: ELISA, coated cynomolgus TNFR2
Experimental: as §1, §2

Row | EC50 | Binder
55 | 0.0562 µg/mL | B1
56 | 0.0756 µg/mL | B3
